In patent US20250242041A1 (Seagen, published 2025):

Legend:
[1] = biological target: T1, cyno αvβ6 on 293F:cynoβ6 cells (human;Macaca fascicularis, UniProt P06756 31-1048; A0A2K5TZ36 22-787); assay: competition binding on 293F cells
T1 chain 1: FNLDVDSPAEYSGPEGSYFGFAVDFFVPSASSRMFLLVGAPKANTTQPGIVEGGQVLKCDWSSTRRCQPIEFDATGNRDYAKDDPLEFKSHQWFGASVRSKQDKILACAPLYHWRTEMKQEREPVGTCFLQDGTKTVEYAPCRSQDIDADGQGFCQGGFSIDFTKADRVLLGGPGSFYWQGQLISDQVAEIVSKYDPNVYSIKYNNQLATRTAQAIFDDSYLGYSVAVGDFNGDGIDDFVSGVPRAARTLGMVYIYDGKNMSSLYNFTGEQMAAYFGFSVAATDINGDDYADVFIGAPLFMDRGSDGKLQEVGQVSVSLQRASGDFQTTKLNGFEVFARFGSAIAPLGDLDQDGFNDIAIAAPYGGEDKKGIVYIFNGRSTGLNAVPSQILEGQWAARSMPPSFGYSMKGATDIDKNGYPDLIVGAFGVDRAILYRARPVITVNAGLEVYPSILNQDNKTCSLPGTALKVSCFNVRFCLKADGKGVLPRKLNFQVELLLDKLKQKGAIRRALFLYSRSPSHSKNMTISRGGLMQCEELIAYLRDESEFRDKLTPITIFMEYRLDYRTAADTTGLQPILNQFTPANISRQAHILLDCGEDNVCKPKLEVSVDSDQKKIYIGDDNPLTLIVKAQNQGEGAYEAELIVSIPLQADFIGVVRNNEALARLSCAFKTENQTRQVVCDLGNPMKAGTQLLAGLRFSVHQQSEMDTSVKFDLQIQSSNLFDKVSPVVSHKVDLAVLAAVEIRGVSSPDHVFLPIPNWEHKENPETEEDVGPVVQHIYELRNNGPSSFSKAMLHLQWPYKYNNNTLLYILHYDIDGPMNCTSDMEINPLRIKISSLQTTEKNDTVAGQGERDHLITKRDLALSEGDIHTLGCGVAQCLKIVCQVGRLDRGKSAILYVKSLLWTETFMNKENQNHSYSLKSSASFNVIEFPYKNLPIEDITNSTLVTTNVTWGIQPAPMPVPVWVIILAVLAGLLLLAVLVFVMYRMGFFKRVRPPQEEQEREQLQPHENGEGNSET
T1 chain 2: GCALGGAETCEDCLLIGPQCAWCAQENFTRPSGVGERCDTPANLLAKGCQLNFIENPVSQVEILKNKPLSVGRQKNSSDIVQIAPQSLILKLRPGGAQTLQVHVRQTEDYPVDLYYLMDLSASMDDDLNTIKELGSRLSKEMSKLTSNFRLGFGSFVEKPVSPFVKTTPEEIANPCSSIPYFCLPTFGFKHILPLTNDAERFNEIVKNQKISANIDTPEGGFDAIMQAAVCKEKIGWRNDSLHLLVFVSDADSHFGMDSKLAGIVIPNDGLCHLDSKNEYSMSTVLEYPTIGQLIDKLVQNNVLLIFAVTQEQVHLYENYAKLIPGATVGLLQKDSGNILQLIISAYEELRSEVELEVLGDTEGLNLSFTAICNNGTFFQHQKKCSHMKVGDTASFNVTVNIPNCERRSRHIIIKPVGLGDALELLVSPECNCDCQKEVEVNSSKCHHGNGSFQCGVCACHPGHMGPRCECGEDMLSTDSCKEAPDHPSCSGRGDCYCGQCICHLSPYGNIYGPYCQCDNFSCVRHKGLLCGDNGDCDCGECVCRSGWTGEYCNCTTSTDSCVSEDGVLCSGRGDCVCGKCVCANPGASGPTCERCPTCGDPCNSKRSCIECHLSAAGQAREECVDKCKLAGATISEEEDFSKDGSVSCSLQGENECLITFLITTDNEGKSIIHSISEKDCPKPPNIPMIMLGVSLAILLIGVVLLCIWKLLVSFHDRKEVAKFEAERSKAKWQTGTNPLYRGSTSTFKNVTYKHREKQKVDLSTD

[2] = biological target: T2, human αvβ6 on 293F:huβ6 cells (human, UniProt P06756 31-1048; P18564 22-788); assay: saturation binding by flow cytometry on 293F:huβ6 cells; also confirmed by competition binding
T2 construct: whole, on cells; also called HEK293F:huβ6
Method: 0.1×10⁶ antigen expressing cells were aliquoted in each well of a 96-well v-bottom plate on ice. The cells were incubated for 1 hour with 2 nM AlexaFluor-647 labeled humanized 2A2 HCLG and increasing concentrations (from 4 pM-1 uM) of unlabeled humanized 2A2 HCLG antibody and h2A2-Mdpr-PEG(12)-gluc-MMAE(8) in buffer (Tris-buffered saline, 2% fetal bovine serum, 0.5 mM MnCl₂, 0.02% NaN₃). Cells were pelleted and washed 3 times with TBS/FBS. The cells were pelleted and resuspended in 125 uL of TBS/FBS. Fluorescent signal of binding was detected using a Becton Dickinson Biosciences LSR II (San Jose, CA). Percent of saturated fluorescent signal was used to determine percent labeled humanized 2A2 antibody bound to cells and to subsequently extrapolate the EC50 by fitting the data to a sigmoidal dose-response curve with variable slope using GraphPad Software (LaJolla, CA).
0.1×10⁶ antigen expressing cells were aliquoted per well into a 96-well v-bottom plate. m2A2 and h2A2 HCLG were directly labeled with AlexaFluor-647 and added to cells at concentrations ranging from 6 pM-340 nM in buffer (Tris-buffered saline, 2% fetal bovine serum, 0.5 mM MnCl₂, 0.02% NaN₃). […] Fluorescent signal of binding was detected using a Becton Dickinson Biosciences LSR II (San Jose, CA). The EC50 was calculated using GraphPad Software (LaJolla, CA).

T2 sequence (P18564 22-788, chain 2 of 2, one chain of several): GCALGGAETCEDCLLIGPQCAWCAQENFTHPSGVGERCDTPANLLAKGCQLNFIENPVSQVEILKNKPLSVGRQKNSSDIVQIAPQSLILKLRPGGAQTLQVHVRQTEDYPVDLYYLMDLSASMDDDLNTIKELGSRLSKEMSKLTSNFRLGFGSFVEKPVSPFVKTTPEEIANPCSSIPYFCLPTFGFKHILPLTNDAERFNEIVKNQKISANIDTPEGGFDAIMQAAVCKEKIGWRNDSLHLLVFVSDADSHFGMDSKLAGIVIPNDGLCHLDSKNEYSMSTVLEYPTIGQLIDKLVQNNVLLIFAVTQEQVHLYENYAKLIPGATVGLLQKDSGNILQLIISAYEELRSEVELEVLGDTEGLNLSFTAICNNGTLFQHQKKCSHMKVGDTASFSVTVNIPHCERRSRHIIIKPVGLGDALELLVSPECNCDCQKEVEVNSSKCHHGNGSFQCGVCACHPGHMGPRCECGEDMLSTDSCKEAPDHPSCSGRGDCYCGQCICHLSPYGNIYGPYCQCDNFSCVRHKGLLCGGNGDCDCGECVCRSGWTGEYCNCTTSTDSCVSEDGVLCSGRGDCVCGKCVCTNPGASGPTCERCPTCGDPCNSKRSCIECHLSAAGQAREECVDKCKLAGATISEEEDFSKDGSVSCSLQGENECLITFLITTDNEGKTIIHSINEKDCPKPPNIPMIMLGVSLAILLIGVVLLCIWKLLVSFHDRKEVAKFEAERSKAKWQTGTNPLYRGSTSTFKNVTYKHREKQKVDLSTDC

EC50 [1]: 3 nM
binding result [2]: binds
B1: h2A2 HCLG humanized antibody (antibody, human IgG1, kappa, V domains shown)
VH: QFQLVQSGAEVKKPGASVKVSCKASGYSFTDYNVNWVRQAPGQGLEWIGVINPKYGTTRYNQKFKGRATLTVDKSTSTAYMELSSLRSEDTAVYYCTRGLNAWDYWGQGTLVTVSS
VL: DIQMTQSPSSLSASVGDRVTITCGASENIYGALNWYQQKPGKAPKLLIYGATNLEDGVPSRFSGSGSGRDYTFTISSLQPEDIATYYCQNVLTTPYTFGQGTKLEIKR
notes: Labelled with AlexaFluor-647 in the saturation assay; also called humanized 2A2 HCLG
